The values below come from patent publication US20250313625A1 (ELPISCIENCE SUZHOU BIOPHARMA, published 2025).

As a reminder, the EC50 is the concentration needed to bring the measured effect to its halfway point. By IC50 is commonly meant the concentration at which inhibition is half-maximal.

Experiment [1] addresses T1, hFc tagged human LAG3 ECD recombinant protein (human, UniProt P18627 23-450).
T1 construct: range 23-450; also called biotin labelled hFc tagged human LAG3 ECD; not shown: human IgG Fc tag
T1 sequence (looked up): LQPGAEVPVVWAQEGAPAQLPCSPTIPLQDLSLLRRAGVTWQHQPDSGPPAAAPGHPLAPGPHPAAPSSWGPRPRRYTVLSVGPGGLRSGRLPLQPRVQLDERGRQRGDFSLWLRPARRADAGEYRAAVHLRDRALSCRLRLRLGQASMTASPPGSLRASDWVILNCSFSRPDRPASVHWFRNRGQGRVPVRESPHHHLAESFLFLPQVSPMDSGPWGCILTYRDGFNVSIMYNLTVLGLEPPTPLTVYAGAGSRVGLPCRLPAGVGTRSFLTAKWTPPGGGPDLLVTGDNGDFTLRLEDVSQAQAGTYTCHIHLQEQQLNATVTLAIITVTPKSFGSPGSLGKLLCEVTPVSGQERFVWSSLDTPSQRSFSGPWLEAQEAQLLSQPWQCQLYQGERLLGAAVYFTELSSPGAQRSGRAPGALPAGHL
Nature of the experiment: competitive ELISA: excess competitor, biotin hFc-LAG3 ECD, coated BMS-986016. As for the experimental part: (§1) Competitive ELISA assay was used for epitope binning of the purified hybridoma antibodies. […] After washing, HRP labeled anti-streptavidin (SA) 2nd antibody (Sigma) was added and incubated at 37° C. for 1 hour. Then, 100 μl/well of TMB solution (Biotechnology) was added. After incubation for 15 minutes at room temperature, the reaction was stopped by the addition of 50 μl of 1N HCl. OD 450 nm was read. Competition ratio was calculated.

Experiment [2] concerns the target T2, human LAG3, full length, stably expressed on cells (human, UniProt P18627 23-525).
T2 construct: whole, on cells; also called CHOK1-human LAG3
T2 sequence (looked up): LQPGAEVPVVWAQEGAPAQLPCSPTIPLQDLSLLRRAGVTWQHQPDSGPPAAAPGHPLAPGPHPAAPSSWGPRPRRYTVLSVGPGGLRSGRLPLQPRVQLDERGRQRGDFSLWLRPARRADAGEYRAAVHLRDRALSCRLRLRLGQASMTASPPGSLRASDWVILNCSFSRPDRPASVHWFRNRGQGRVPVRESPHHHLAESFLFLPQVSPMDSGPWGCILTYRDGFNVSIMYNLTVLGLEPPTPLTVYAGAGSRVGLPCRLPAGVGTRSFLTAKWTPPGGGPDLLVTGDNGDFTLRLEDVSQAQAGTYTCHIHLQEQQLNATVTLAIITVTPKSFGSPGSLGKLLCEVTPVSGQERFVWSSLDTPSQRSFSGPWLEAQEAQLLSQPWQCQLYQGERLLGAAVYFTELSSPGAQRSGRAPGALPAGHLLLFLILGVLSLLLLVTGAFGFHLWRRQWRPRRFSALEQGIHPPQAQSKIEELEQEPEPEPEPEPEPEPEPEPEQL
Nature of the experiment: FACS on 293F-human LAG3 cells. As for the experimental part: (§2) Briefly the antibodies were incubated with 2×10⁵ target cells at 4° C. for 1 hour. After washing, fluorescence labeled anti-mouse IgG 2nd antibody (Life Technologies) was added and incubated at 4° C. for 1 hour. Geometric median fluorescence intensity (MFI) was detected and EC₅₀ was calculated using GraphPad Prism9.0.

The target of experiment [3] is T3, hFc tagged human LAG3 D1-D2 recombinant protein (human, UniProt P18627 23-261).
T3 construct: range 23-261; generated by Chempartner; also called hLAG3 D1-D2; not shown: human IgG Fc tag
T3 sequence (looked up): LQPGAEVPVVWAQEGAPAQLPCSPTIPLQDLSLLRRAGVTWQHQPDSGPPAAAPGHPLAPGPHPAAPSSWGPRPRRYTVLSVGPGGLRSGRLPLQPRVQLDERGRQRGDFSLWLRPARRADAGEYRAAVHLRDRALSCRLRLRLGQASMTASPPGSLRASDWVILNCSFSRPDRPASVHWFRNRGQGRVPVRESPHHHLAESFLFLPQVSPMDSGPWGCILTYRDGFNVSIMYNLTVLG
Nature of the experiment: ELISA, coated hFc-hLAG3 D1-D2. The protocol:
Binding activity of the purified hybridoma antibodies against human LAG3 was detected by ELISA assay using hFc tagged human LAG3 D1-D2 recombinant protein. Briefly the antibodies were incubated with ELISA microplate coated antigens at 37° C. for 1 hour. After washing, horseradish peroxidase (HRP) labeled anti-human IgG 2nd Ab (Sigma) was added and incubated at 37° C. for 1 hour. Then, 100 μl/well of TMB solution (Biotechnology) was added. After incubation for 15 minutes at room temperature, the reaction was stopped by the addition of 50 μl of 1N HCl. OD 450 nm was read and EC₅₀ was calculated using GraphPad Prism9.0.

For experiment [4], the target named is T1, hFc tagged human LAG3 ECD recombinant …. Nature of the experiment: competitive ELISA: excess competitor, biotin hFc-LAG3 ECD, coated BAP-050. The protocol:
as §1
Background: ELISA stands for enzyme-linked immunosorbent assay.

For experiment [5] the target is unchanged. Nature of the experiment: competitive FACS: hFc-LAG3 ECD binding to Raji cells (MHC II). As for the experimental part: Competitive FACS assay was used to determine whether the purified hybridoma antibodies can block LAG3 and MHC II interaction. […] After washing, dye labeled anti-human Fc 2nd antibody (Sigma) was added and incubated at 37° C. for 1 hour. Fluorescence intensity was detected.

The target in experiment [6] is T4, mouse LAG3, full length, stably expressed on CHOK1 cells (mouse, UniProt Q61790 24-521).
T4 construct: whole, on cells
T4 sequence (looked up): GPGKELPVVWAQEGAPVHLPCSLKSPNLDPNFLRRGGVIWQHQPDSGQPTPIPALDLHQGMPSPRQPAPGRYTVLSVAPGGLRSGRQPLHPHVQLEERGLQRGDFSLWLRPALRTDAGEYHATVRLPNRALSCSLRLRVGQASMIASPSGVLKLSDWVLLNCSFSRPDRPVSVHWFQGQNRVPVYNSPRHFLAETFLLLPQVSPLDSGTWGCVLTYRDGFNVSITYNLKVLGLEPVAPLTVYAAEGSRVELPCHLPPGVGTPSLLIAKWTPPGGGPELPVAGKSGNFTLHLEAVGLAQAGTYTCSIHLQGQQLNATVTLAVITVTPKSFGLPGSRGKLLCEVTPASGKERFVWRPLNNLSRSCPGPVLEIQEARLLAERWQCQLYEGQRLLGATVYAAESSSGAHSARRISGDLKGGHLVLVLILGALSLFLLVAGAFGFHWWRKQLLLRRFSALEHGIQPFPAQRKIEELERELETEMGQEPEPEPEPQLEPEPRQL
Nature of the experiment: FACS on CHOK1 cells expressing mouse LAG3. The protocol:
as §2

B1: Antibody 015 (antibody, V domains shown)
VH: EVQLQQSGPVLVKPGASVKLSCKASGFTFTDYYMNWVKLSHGKSLEWIGVINPFNGDTAYKQKFKGKATLTVDKSSSTAYMELNSLTSEDSAVYYCARDDGYYLYYFDSWGQGTTLTVSS
VL: DIQMTQSPSSLSASLGERVSLTCRASQDIGSRLNWLQQEPDGTIKRLIYATSSLDSGVPKRFSGSRSGSDYSLTISSLDSEDFVVYYCLQYASSPPTFGAGTKLELK
notes: mouse hybridoma antibody
Regarding B1, the “% competition” value in experiment [1] came out at 10%; in experiment [4], 1.6%. Besides, the values for the EC50 in experiment [2] and in experiment [3] were 2.09 nM and 0.25 nM, respectively. Moreover, the IC50 in experiment [5] was found to be 2.7 nM. Also, the “TOP blocking (%)” value in experiment [5] came out at 94.3%. Moreover, the binding result in experiment [6] is on record as “no binding”.

B2: Antibody 039 (antibody, V domains shown)
VH: EFQLQQSGPELVKPGASVKISCKASGYSFTDYNLNWVRQSNGKSLEWIGLVDPIYGTIRYNQNFKDKATLTVDQSSSTAYMQLNSLTSEDSAVYYCASIMTAVRYFDHWGQGTTLTVSS
VL: DVLMTQTPLFLPVSLGDQASISCRSSLNIVHSDGNTYLEWYLQKPGQSPKLLIYKVSNRFSGVPDRFSGSGSGTDFTLKISGVEAEDLGVYYCFQGSHVPPTFGGGTKLEIK
notes: mouse hybridoma antibody
Take B2: the “% competition” value in experiment [1] came to 19.3%; in experiment [4], 2.6%. For the same molecule, the EC50 in experiment [2] was 1.38 nM; in experiment [3], 0.04 nM. For the same molecule, the IC50 in experiment [5] stood at 5.2 nM. Further, the “TOP blocking (%)” value in experiment [5] stood at 94.9%. Besides, in experiment [6], the binding result is “no binding”.

B3: Antibody 048 (antibody, V domains shown)
VH: EFQVQQSGPELVKPGASVKISCKASGYSFSDYNMNWLKQSTGKSLEWIGLVDPIYGTIRYNQKFKGKATLTVDQSSSTAYMQLNSLTSEDSAVYYCALITTSVRYFDYWGQGTTLTVSS
VL: DVLMTQTPLSLPVSLGDQASISCRSSQNIVHTDGNTYLEWYLQKPGQSPKLLIYKVSNRFSGVPDRFSGSGSGTDFTLKISRVEAEDLGVYYCFQGSHVPPTFGGGTKLEIK
notes: mouse hybridoma antibody
As to B3, the “% competition” value in experiment [1] came to 41.7%; in experiment [4], 10%. The EC50 is 1.19 nM in experiment [2] and 0.05 nM in experiment [3]. The IC50 in experiment [5] stood at 7.6 nM. Also, the “TOP blocking (%)” value in experiment [5] is 92.9%. Further, the binding result in experiment [6] is listed as “no binding”.
